Assay results: patent US20250002564A1 (HOSPITAL FOR SICK CHILDREN, published 2025)

Assays:
mouse FcRn [1] = target: T1, mouse FcRn (mouse, UniProt Q61559 22-297; P01887 21-119)
T1 sequence (looked up) 1: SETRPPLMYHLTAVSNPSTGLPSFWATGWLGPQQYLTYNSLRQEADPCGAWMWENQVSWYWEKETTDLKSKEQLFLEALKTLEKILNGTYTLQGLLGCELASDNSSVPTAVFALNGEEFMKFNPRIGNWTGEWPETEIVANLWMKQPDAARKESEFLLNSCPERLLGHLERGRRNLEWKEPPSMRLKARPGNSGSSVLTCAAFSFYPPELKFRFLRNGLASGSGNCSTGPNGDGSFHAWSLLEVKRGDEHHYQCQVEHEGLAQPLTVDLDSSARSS
T1 sequence (looked up) 2: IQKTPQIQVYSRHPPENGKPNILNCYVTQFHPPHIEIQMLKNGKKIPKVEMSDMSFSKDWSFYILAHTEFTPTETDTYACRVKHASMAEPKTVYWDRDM

mouse FcγRI = target: T2, mouse FcγRI (mouse, UniProt P26151 25-297)
T2 sequence (looked up): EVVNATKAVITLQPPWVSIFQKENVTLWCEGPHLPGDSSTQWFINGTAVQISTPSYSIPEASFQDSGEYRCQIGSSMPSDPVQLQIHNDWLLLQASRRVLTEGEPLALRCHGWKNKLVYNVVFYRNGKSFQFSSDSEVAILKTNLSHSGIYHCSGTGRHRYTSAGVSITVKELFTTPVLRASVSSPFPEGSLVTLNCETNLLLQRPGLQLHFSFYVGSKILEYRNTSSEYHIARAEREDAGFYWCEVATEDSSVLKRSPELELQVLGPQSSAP

mouse FcRn [2] = target: T1, mouse FcRn; experiment: pH 5.6

B1: HD37 single chain IgG2a (mouse, anti-hCD19) (antibody)
chain: DILLTQTPASLAVSLGQRATISCKASQSVDYDGDSYLNWYQQIPGQPPKLLIYDASNLVSGIPPRFSGSGSGTDFTLNIHPVEKVDAATYHCQQSTEDPWTFGGGTKLEIKRADAAPTVSIFPPSSEQLTSGGASVVCFLNNFYPKDINVKWKIDGSERQNGVLNSWTDQDSKDSTYSMSSTLTLTKDEYERHNSYTCEATHKTSTSPIVKSFNRNECGGSSGSGSGSTGTSSSGTGTSAGTTGTSASTSGSGSGGGGGSGGGGSAGGTATAGASSGSGSSGSSSSGGTGTGQVQLQQSGAELVRPGSSVKISCKASGYAFSSYWMNWVKQRPGQGLEWIGQIWPGDGDTNYNGKFKGKATLTADESSSTAYMQLSSLASEDSAVYFCARRETTTVGRYYYAMDYWGQGTSVTVSSSQSFPNVFPLVSCESPLSDKNLVAMGCLARDFLPSTISFTWNYQNNTEVIQGIRTFPTLRTGGKYLATSQVLLSPKSILEGSDEYLVCKIHYGGKNRDLHVPIPSKPCPPCKCPAPNLLGGPSVFIFPPKIKDVLMISLSPIVTCVVVDVSEDDPDVQISWFVNNVEVHTAQTQTHREDYNSTLRVVSALPIQHQDWMSGKEFKCKVNNKDLPAPIERTISKPKGSVRAPQVYVLPPPEEEMTKKQVTLTCMVTDFMPEDIYVEWTNNGKTELNYKNTEPVLDSDGSYFMYSKLRVEKKNWVERNSYSCSVVHEGLHNHHTTKSFSRTPGK
notes: also called mIgG2a control; parental IgG
Mouse FcRn [1]
  kon: 116000 M⁻¹ s⁻¹
Mouse FcγRI
  Kd: 8.63 nM
  koff: 0.000451 s⁻¹
  kon: 52200 M⁻¹ s⁻¹
Mouse FcRn [2]
  Kd: 1.06 nM
  koff: 0.000123 s⁻¹
